We go through one substance from patent US20040014036.

Data set [1] deals with Gal4 full length (Saccharomyces cerevisiae). The data set is described as follows: cell_activity. Particulars: yeast lacZ reporter, 5x17mer; activation dependent on Gal4 sites stated for the peptide activators.
Data set [2] has as its system Gal4(1-100)-LS201 (Saccharomyces cerevisiae). Briefly: cell_activity. The following applies: yeast JPY9:RJR227 lacZ reporter; activation dependent on Gal4 sites (p75).

For “GAL4 consensus 17mer sites (five, reporter pRJR227)”, the activity (beta-gal units) in data set [1] is 2350; in data set [2], 5290.
